To fix the notation:
B2: 3Q-SNARE complex (QaQbQc) on proteoliposomes (complex)
chain 1: MSFFDIEAQSSKGNSQQEPQFSTNQKTKELSNLIETFAEQSRVLEKECTKIGSKRDSKELRYKIETELIPNCTSVRDKIESNILIHQNGKLSADFKNLKTKYQSLQQSYNQRKSLFPLKTPISPGTSKERKDIHPRTEAVRQDPESSYISIKVNEQSPLLHNEGQHQLQLQEEQEQQQQGLSQEELDFQTIIHQERSQQIGRIHTAVQEVNAIFHQLGSLVKEQGEQVTTIDENISHLHDNMQNANKQLTRADQHQRDRNKCGKVTLIIIIVVCMVVLLAVLS
chain 2: MSSLLISYESDFKTTLEQAKASLAEAPSQPLSQRNTTLKHVEQQQDELFDLLDQMDVEVNNSIGDASERATYKAKLREWKKTIQSDIKRPLQSLVDSGDRDRLFGDLNASNIDDDQRQQLLSNHAILQKSGDRLKDASRIANETEGIGSQIMMDLRSQRETLENARQTLFQADSYVDKSIKTLKTMTRRLVANKFISYAIIAVLILLILLVLFSKFK
chain 3: MAANSVGKMSEKLRIKVDDVKINPKYVLYGVSTPNKRLYKRYSEFWKLKTRLERDVGSTIPYDFPEKPGVLDRRWQRRYDDPEMIDERRIGLERFLNELYNDRFDSRWRDTKIAQDFLQLSKPNVSQEKSQQHLETADEVGWDEMIRDIKLDLDKESDGTPSVRGALRARTKLHKLRERLEQDVQKKSLPSTEVTRRAALLRSLLKECDDIGTANIAQDRGRLLGVATSDNSSTTEVQGRTNNDLQQGQMQMVRDQEQELVALHRIIQAQRGLALEMNEELQTQNELLTALEDDVDNTGRRLQIANKKARHFNNSA

For test [1], the target named is four-SNARE bundle with GST-Qa (GST-Qa, R, Qb, Qc) in detergent (S. cerevisiae, UniProt Q12241;Q12255;Q04338;P32912). Description: pull-down.
The target of test [2] is HOPS (homotypic fusion and vacuole protein sorting complex) (S. cerevisiae, UniProt P12868;Q03308;P27801;P20795;Q07468;P38959). Description: proteoliposome floatation.
Test [3] deals with 4-SNARE complex (R, Qa, Qb, Qc) on proteoliposomes (S. cerevisiae, UniProt Q12255;Q12241;Q04338;P32912). Description: proteoliposome floatation.
Test [4] concerns the target B2. Description: proteoliposome floatation.
Test [5] concerns the target T1, Qa-SNARE Vam3 in proteoliposomes (S. cerevisiae, UniProt Q12241 1-283).
T1 sequence: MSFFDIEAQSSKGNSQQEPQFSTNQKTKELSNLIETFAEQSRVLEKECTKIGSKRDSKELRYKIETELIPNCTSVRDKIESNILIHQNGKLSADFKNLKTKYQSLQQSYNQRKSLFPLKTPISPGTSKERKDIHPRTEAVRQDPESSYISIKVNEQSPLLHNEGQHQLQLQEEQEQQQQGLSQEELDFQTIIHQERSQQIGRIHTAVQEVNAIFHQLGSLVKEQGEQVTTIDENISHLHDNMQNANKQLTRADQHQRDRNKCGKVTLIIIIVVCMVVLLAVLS
Nature of the test: co-IP.

B1: Sec17 (natural protein)
chain: MSDPVELLKRAEKKGVPSSGFMKLFSGSDSYKFEEAADLCVQAATIYRLRKELNLAGDSFLKAADYQKKAGNEDEAGNTYVEAYKCFKSGGNSVNAVDSLENAIQIFTHRGQFRRGANFKFELGEILENDLHDYAKAIDCYELAGEWYAQDQSVALSNKCFIKCADLKALDGQYIEASDIYSKLIKSSMGNRLSQWSLKDYFLKKGLCQLAATDAVAAARTLQEGQSEDPNFADSRESNFLKSLIDAVNEGDSEQLSEHCKEFDNFMRLDKWKITILNKIKESIQQQEDDLL
Turning to B1, the binding result in test [1] was “binds”.
For the molecule B2, in test [2], the binding result is recorded as “binds”.

B3: Sec18 (enzyme)
chain: MFKIPGFGKAAANHTPPDMTNMDTRTRHLKVSNCPNNSYALANVAAVSPNDFPNNIYIIIDNLFVFTTRHSNDIPPGTIGFNGNQRTWGGWSLNQDVQAKAFDLFKYSGKQSYLGSIDIDISFRARGKAVSTVFDQDELAKQFVRCYESQIFSPTQYLIMEFQGHFFDLKIRNVQAIDLGDIEPTSAVATGIETKGILTKQTQINFFKGRDGLVNLKSSNSLRPRSNAVIRPDFKFEDLGVGGLDKEFTKIFRRAFASRIFPPSVIEKLGISHVKGLLLYGPPGTGKTLIARKIGTMLNAKEPKIVNGPEILSKYVGSSEENIRNLFKDAEAEYRAKGEESSLHIIIFDELDSVFKQRGSRGDGTGVGDNVVNQLLAKMDGVDQLNNILVIGMTNRKDLIDSALLRPGRFEVQVEIHLPDEKGRLQIFDIQTKKMRENNMMSDDVNLAELAALTKNFSGAEIEGLVKSASSFAINKTVNIGKGATKLNTKDIAKLKVTREDFLNALNDVTPAFGISEEDLKTCVEGGMMLYSERVNSILKNGARYVRQVRESDKSRLVSLLIHGPAGSGKTALAAEIALKSGFPFIRLISPNELSGMSESAKIAYIDNTFRDAYKSPLNILVIDSLETLVDWVPIGPRFSNNILQMLKVALKRKPPQDRRLLIMTTTSAYSVLQQMDILSCFDNEIAVPNMTNLDELNNVMIESNFLDDAGRVKVINELSRSCPNFNVGIKKTLTNIETARHDEDPVNELVELMTQSA
As to B3, the binding result in test [3], in test [2], in test [4] and in test [1] was “binds” throughout.

B4: R-SNARE Nyv1 (natural protein)
chain: MKRFNVSYVEVIKNGETISSCFQPFQKNENYGTITSANEQITPVIFHNLIMDMVLPKVVPIKGNKVTKMSMNLIDGFDCFYSTDDHDPKTVYVCFTLVDMPKILPIRILSGLQEYESNATNELLSSHVGQILDSFHEELVEYRNQTLNSSGNGQSSNGNGQNTISDIGDATEDQIKDVIQIMNDNIDKFLERQERVSLLVDKTSQLNSSSNKFRRKAVNIKEIMWWQKVKNITLLTFTIILFVSAAFMFFYLW
B4: the binding result in test [5] and in test [2] was “binds” throughout.
